In paper PMC3438196:
Read-outs that look alike come from different tables or passages of the source.

Columns and labels:
Assay in all cases: MAPPIT
[1] = molecular target: Gag MAPPIT prey (pMG2-Gag); settings: stimulation with Epo; parent: est. 38; read off a plot
[2] = molecular target: Gagpol MAPPIT prey (pMG2-Gagpol)
[3] = molecular target: Gagpol MAPPIT prey (pMG2-Gagpol); remark: listed apart in the source

Substance | response (fold induction) [1] | percent of parent [2] | percent of parent [3]
Apobec3G MAPPIT bait (pCEL-Apobec3G) (from UniProt Q9HC16) YFW125-127DY | 2.2 |  | 
Apobec3G-GFP MAPPIT bait (pCEL-Apobec3G-GFP) (from UniProt Q9HC16) D128G |  | 11 % of WT | 
Apobec3G-GFP MAPPIT bait (pCEL-Apobec3G-GFP) (from UniProt Q9HC16) E191V |  | 8 % of WT | 
Apobec3G-GFP MAPPIT bait (pCEL-Apobec3G-GFP) (from UniProt Q9HC16) H81L |  |  | 33 % of WT
Apobec3G-GFP MAPPIT bait (pCEL-Apobec3G-GFP) (from UniProt Q9HC16) K79M |  |  | 32 % of WT
Apobec3G-GFP MAPPIT bait (pCEL-Apobec3G-GFP) (from UniProt Q9HC16) K270E |  |  | 67 % of WT
Apobec3G-GFP MAPPIT bait (pCEL-Apobec3G-GFP) (from UniProt Q9HC16) N20D |  | 22 % of WT | 
Apobec3G-GFP MAPPIT bait (pCEL-Apobec3G-GFP) (from UniProt Q9HC16) Q237K |  |  | 46 % of WT
Apobec3G-GFP MAPPIT bait (pCEL-Apobec3G-GFP) (from UniProt Q9HC16) R30L |  | 5 % of WT | 5 % of WT
Apobec3G-GFP MAPPIT bait (pCEL-Apobec3G-GFP) (from UniProt Q9HC16) R78W |  |  | 6 % of WT
Apobec3G-GFP MAPPIT bait (pCEL-Apobec3G-GFP) (from UniProt Q9HC16) R122C |  | 5 % of WT | 
Apobec3G-GFP MAPPIT bait (pCEL-Apobec3G-GFP) (from UniProt Q9HC16) R136S |  | 24 % of WT | 
Apobec3G-GFP MAPPIT bait (pCEL-Apobec3G-GFP) (from UniProt Q9HC16) R238C |  |  | 56 % of WT
Apobec3G-GFP MAPPIT bait (pCEL-Apobec3G-GFP) (from UniProt Q9HC16) W94R |  | 13 % of WT | 
Apobec3G-GFP MAPPIT bait (pCEL-Apobec3G-GFP) (from UniProt Q9HC16) W269G |  |  | 33 % of WT
Apobec3G-GFP MAPPIT bait (pCEL-Apobec3G-GFP) (from UniProt Q9HC16) Y222N |  |  | 6 % of WT
